Assays:
[1] = molecular target: SMALP-Sf-ABCC2-FLAG (Sf-ABCC2 extracted from silkworm pupae membranes with styrene maleic acid and affinity purified) (Spodoptera frugiperda); assay: immuno-magnetic separation with SMALP-Sf-ABCC2 and anti-FLAG magnetic beads; colonies on LB-tet
[2] = molecular target: T1, Spore-Cry1Fa (Bacillus subtilis spores displaying the Bacillus thuringiensis Cry1Fa protein as a … (Bacillus thuringiensis, UniProt Q03746 1-615)); assay: microscopy of spores on Sf9 cells expressing Sf-ABCC2
T1 construct: vector pSB634 or pHY300PLK
T1 sequence: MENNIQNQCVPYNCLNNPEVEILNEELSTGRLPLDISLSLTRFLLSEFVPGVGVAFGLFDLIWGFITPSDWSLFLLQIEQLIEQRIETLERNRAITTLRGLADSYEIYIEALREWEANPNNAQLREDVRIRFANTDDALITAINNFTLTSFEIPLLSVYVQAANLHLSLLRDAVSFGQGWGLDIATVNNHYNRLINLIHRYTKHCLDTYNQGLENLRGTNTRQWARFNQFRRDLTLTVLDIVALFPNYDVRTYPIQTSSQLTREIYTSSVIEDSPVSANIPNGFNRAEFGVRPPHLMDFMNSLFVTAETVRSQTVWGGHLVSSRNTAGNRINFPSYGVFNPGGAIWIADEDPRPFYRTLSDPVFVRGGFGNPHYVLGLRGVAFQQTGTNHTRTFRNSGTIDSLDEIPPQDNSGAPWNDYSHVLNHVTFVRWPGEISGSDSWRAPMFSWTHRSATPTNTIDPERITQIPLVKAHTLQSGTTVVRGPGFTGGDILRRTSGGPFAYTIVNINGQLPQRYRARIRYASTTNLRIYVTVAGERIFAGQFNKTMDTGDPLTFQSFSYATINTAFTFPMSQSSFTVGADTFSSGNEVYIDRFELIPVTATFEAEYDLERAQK

[3] = molecular target: T1, Spore-Cry1Fa (Bacillus subtilis spores …); assay: immuno-magnetic separation with anti-FLAG magnetic beads
[4] = molecular target: T2, Spore-Cry1Aa (Bacillus subtilis spores displaying the Bacillus thuringiensis Cry1Aa protein as a … (Bacillus thuringiensis, UniProt P0A366 1-621)); assay: flow cytometry of spores labelled with Bm-ABCC2, anti-FLAG mouse antibody and Alexa-labelled anti-mouse IgG, after a wash with 0.2% SDS
T2 construct: vector pSB634 or pHY300PLK

[5] = molecular target: T1, Spore-Cry1Fa (Bacillus subtilis spores …); assay: bright field and fluorescence microscopy of spores mixed with Sf9 cells

Question: How did the spores (colonies) pulled out by the magnetic beads from 10^6 spores (spores (colonies)) [1] turn out when “Spore-pSB634 (Bacillus subtilis spores carrying the empty vector pSB634, no Cry protein displayed)” was run?
Answer: The spores (colonies) pulled out by the magnetic beads from 10^6 spores (spores (colonies)) was 9.

B1: Sf-ABCC2 (Spodoptera frugiperda ABC transporter subfamily C type 2, C-terminal FLAG tag) expressed on Sf9 cells (receptor)
chain: MDKSNKNTAANGNGGQRAGEPKKRVRKKPNILSRIFVWWIFPVLITGNKRDVEEDDLIVPSKKFNSERQGEYFERYWFEEVAIAEREDRDPSLWKAMRRAYWLQYMPGAIFVLLISGLRTAQPLLFSQLLSYWSVDSEMSQQDAGLYALAMLGINFITMMCTHHNNLFVMRFSMKVKIAASSLLFRKLLRMSQVSVGDVAGGKLVNLLSNDVARFDYAFMFLHYLWVVPLQVGVVLYFVYDAAGWAPYVGLFGVIILIMPLQAGLTKLTGVVRRMTAKRTDKRIKLMSEIINGIQVIKMYAWEKPFQLVVKAARAYEMSALRKSIFIRSMFLGFMLFTERSVMFLTVLTLALTGNMISATLIYPIQQYFGIITMNVTLILPMAFASFSEMLISLERIQGFLLLDERSDIQITPKVVNGAGSKLFNNSKKEGGLETGIVLPTKYSPTEASIARPVQDEPNMADYPVQLNKVNATWADLNDNKEMTLKNISLRVRKNKLCAVIGPVGSGKTSLLQLLLRELPVTSGNLSISGTVSYASQEPWLFPATVRENILFGLEYNVAKYKEVCKVCSLLPDFKQFPYGDLSLVGERGVSLSGGQRARINLARAVYREADIYLLDDPLSAVDANVGRQLFDGCIKGYLSGKTCILVTHQIHYLKAADFIVVLNEGSVENMGSYDELMKTGTEFSMLLSDQASEGSDTDKKERPAMMQGISKMSVKSDDEEGEEKVQVLEAEERQSGSLKWDVLGRYMKSVNSWCMVVMAFLVLVITQGAATTTDYWLSFWTNQVDGYIQTLPEGESPNPELDTQVGLLTTGQYLIVHGSVVLAIIILTQVRILSFVVMTMRASENLHNTIYEKLIVAVMRFFDTNPSGRVLNRFSKDMGAMDELLPRSMLETVQMYLSLASVLVLNAIALPWTLIPTTVLMFIFVFLLKWYINAAQAVKRLEGTTKSPVFGMINSTISGLSTIRSSNSQDRLLNSFDDAQNLHTSAFYTFLGGSTAFGLYLDTLCLIYLGIIMSIFILGDFGELIPVGSVGLAVSQSMVLTMMLQMAAKFTADFLGQMTAVERVLEYTKLPTEENMETGPTTPPKGWPSAGEVTFSNVYLKYSPDDPPVLKDLNFAIKSGWKVGVVGRTGAGKSSLISALFRLSDITGSIKIDGLDTQGIAKKLLRSKISIIPQEPVLFSASLRYNLDPFDNYNDEDIWRALEQVELKESIPALDYKVSEGGTNFSMGQRQLVCLARAILRSNKILIMDEATANVDPQTDALIQKTIRKQFANCTVLTIAHRLNTIMDSDRVLVMDQGVAAEFDHPYILLSNPNSKFSSMVKETGDNMSRILFEVAKTKYESDSKTADYKDDDDK
notes: Expressed in Sf9 cells by baculovirus together with EGFP; also called Sf9::Sf-ABCC2; Sf9 expressing Sf-ABCC2
Question: Does B1 bind [2]?
Answer: Result: binds

B2: SMALP-Sf-ABCC2-FLAG (Sf-ABCC2 extracted from silkworm pupae membranes with styrene maleic acid and affinity purified) (receptor)
chain: B1 chain
notes: also called Sf-ABCC2 in SMALP
Question: Does B2 bind [3]?
Answer: Result: binds

B3: Bm-ABCC2 solubilized in 1% Triton X100 and affinity purified (C-terminal FLAG tag) (receptor)
chain: MNSDGRAGENSSAETRRKPHKPNILSRIFLWWMCPVLVKGNQRDTVEDDLIIPKKSFNSENQGEYLERYWLQEYEAAIKEKREPSLWTALRKAYWLGYMPGAIYLIIISVFRIIQPLVFAELLSYWSVEATITRLEASYYALALLGINFINMMCQHHNSLFVARFGLKVKVACSSLVYRKLLRMDQVALGDVSGGKLVNLLSNDVARFDYAFMFLHYLWVVPVQAAVVLYFLYISAGYAPFVGFFGVVILILPIQAGLTKLTSVVRRETAQRTDRRIKLMTEIINGIQVIKMYAWEKPFQAIVKVARNFEMIALRKSIFIRSVFLGFMLFTERSIIFITCLTFLLTGNLVTATLIYPIQQYISIIQINLTMILPLAIASLSEMLVSLERIQNFLVKDEREDVQITPKSYGDDNRLIFNNKASLGPQNEIIPKKYLATDGQLASTLTNEPVLSTDPAVCDYPIELSKVDATWSSSTDTSEMTLRNITLRIGRGKLCAIIGPVGSGKSSILQVLLKELPVCGGSLRINGRLSYACQESWLFPATVRENILFGLPYDSQKYHEVCKACSLLPDFKQFPYGDLSLVGERGVSLSGGQRARINLARAVYREADIYLLDDPLSAVDANVGRQLFDGCIKGYLRGRTCVLVTHQIHYLKAADIIVILNEGAIENVGSYDDLVNTGTEFSKLLTNQESNDNENGPEKNFLRAISKISTKSVEDPDNEKVQVEEEEKRAKGNLKFSVLYKYLSAVKSWFLVFLMVVTLVITQGCATFIDYWLSFWTNQVDEYEQSLAEGEEPSTSLDTQAGAFTLGVYLWTYGGVILILIVISHVRILTFVITTMRASSNFHDTVYKKLIITVMRFFDMNPSGRVLNRFSKDMGAMDEFLPRSLFETVQMYLTLCSILILNAIALPWTLIPTAVLLILFFVLLKWYLNAAQAVKRLEGTTKSPVLGMINSTLTGLSTIRSSNSQGRLLQMFDNAQNLHTSAFYTFVGGSTAFGLYLDALCLVYLGVILTIFLVIDFSTLIPVGSVGLAVSQSMVLTMMLQMAARFTADFLGQMTAVERVLEYTELPMEENMYDGSQLPKDWPTHGRIEFQNLFLNYSQEDPPVLKDLNFVIENGWKVGVVGRTGAGKSSMISALFRLYELQGHIRIDGIDTNIIAKTELRSKISIIPQEPILFSASVRYNLDPFDSYSDDEIWRALEQVELKEVIPALDYKVSEGGSNFSVGQRQLVCLARAVLRSNKILVMDEATANVDPQTDALIQTTIRREFASCTVITIAHRLNTIMDSDRVLVMDKGVVAEYDTPYALLSDPNSIFSSMVRETGDTMSKVLFRVAEDKHLGRNTEKDYKDDDDK
Question: Does B3 bind [4]?
Answer: Result: binds

B4: Sf-ABCC2-Mutant (ABCC2 from a Cry1Fa-resistant Spodoptera frugiperda strain, C-terminal FLAG tag) expressed on Sf9 cells (receptor)
chain: MDKSNKNTAANGNGGQRAGEPKERVRKKPNILSRIFVWWIFPVLITGNKRDVEEDDLIVPSKKFNSERQGEYFERYWFEEVAIAEREDRDPSLWKAMRRAYWLQYMPGAIFVLLISGLRTAQPLLFSQLLSYWSVDSEMSQQDAGLYALAMLGINFITMMCTHHNNLFVMRFSMKVKIAASSLLFRKLLRMSQVSVGDVAGGKLVNLLSNDVARFDYAFMFLHYLWVVPLQVGVVLYFVYDAAGWAPYVGLFGVIILIMPLQAGLTKLTGVVRRMTAKRTDKRIKLMSEIINGIQVIKMYAWEKPFQLVVKAARAYEMSALRKSIFIRSMFLGFMLFTERSVMFLTVLTLALTGNMISATLIYPIQQYFGIITMNVTLILPMAFASFSEMLISLERIQGFLLLDERSDIQITPKVVNGAGSKLFNNSKKEGGLETGIVLPTKYSPTEANMARPMQDEPNMADYPVQLNKVNATWADLNDNKEMTLKNISSRVRKNKLCAVIGPVGSGKTSLLQLLLRELPVTSGNLSISGTVSYASQEPWLFPATVRENILFGLEYNVAKYKEVCKVCSLLPDFKQFPYGDLSLVGERGVSLSGGQRARINLARAVYREADIYLLDDPLSAVDANVGRQLFDGCIKGYLSGKTCILVTHQIHYLKAADFIVVLNEGSVENMGSYDELMKTGTEFSMLLSDQASEGSDTDKKERPAMMRGISKMSVKSDDEEGEEKVQVLEAEERQSGSLKWDVLGRYMKSVNSWCMVVMAFLVLVITQGAATTTDYWLSFWTNQVDIQTLPEGESKNPELNTQVGLLTTGQYLIVHGSVVLAIIILTQVRILSFVVMTMRASENLHNTIYEKLIVAVMRFFDTNPSGRVLNRFSKDMGAMDELLPRSMLETVQMYLSLASVLVLNAIALPWTLIPTTVLMFIFVFLLKWYINAAQAVKRLEGTTKSPVFGMINSTISGLSTIRSSNSQDRLLNSFDDAQNLHTSAFYTFLGGSTAFGLYLDTLCLIYLGIIMSIFILGDFGELIPVGSVGLAVSQSMVLTMMLQMAAKFTADFLGQMTAVERVLEYTKLPTEENMETGPTTPPKDWPSAGEVTFSNVYLKYSPDDPPVLKDLNFAIKSGWKVGVVGRTGAGKSSLISALFRLSDITGSIKIDGLDTQGIAKKLLRSKISIIPQEPVLFSASLRYNLDPFDNYNDEDIWRALEQVELKESIPALDYKVSEGGTNFSMGQRQLVCLARAILRSNKILIMDEATANVDPQTDALIQKTIRKQFATCTVLTIAHRLNTIMDSDRVLVMDQGVAAEFDHPYILLSNPNSKFSSMVKETGDNMSRILFEVAKTKYESDSKTADYKDDDDK
notes: Expressed in Sf9 cells by baculovirus
Question: Does B4 bind [5]?
Answer: Result: no binding
